Data on 34 molecules can be found in US11814447B2, “Peptide ligands for binding to EphA2” (BICYCLERD LIMITED, priority 2018, dated 2023).

Assay [1] concerns the target T1, Human EphA2 (Ecto), C-terminal polyHis (Human, UniProt P29317 24-537).
T1 construct: extracellular domain; also called EPH receptor A2; ephrin type-A receptor 2
Nature of the assay: fluorescence polarisation competition; competitor fluorescent Compound 18. The procedure:
(§1) Peptides without a fluorescent tag were tested in competition with a peptide with a fluorescent tag and a known Kd (Table 2). Peptides were diluted to an appropriate concentration in assay buffer as described in the direct binding assay with a maximum of 5% DMSO, then serially diluted 1 in 2. […] Measurements were conducted as for the direct binding assay, however the gain was determined prior to the first measurement. Data analysis was in Systat Sigmaplot version 12.0 where the mP values were fit to a user defined cubic equation to generate a Ki value: […]
In general terms: Fluorescence polarisation rises when a labelled molecule tumbles more slowly, as on binding a larger partner.

For assay [2], the target named is T1, Human EphA2 (Ecto), C-terminal polyHis. Nature of the assay: fluorescence polarisation competition; competitor fluorescent Compound 66. The procedure:
as §1

Assay [3] deals with Human EphA2 (Ecto) (Human) (UniProt P29317). Nature of the assay: FP competition, tracer Compound 18.

Starred links: 1 amine or outer side, 2 acyl side, 3 side chain; linkers in the order of their positions; H or OH if unused. Positions of bridges follow the written chain, without caps; N, C: chain ends. Non-standard residues stand in square brackets, D forms with d. No end group written: not given here. 1Nal = N[C@@H](Cc1cccc2ccccc12)C(=O)O; TBMB = c1c(C[*:1])cc(C[*:3])cc1C[*:2]; hArg = N=C(N)NCCCC[C@H](N)C(=O)O; Tle = CC(C)(C)[C@H](N)C(=O)O; Aib = CC(C)(N)C(=O)O; βAla = NCCC(=O)O; Sar = CNCC(=O)O

Chain of Human EphA2 (Ecto) (Human) (P29317 24-537): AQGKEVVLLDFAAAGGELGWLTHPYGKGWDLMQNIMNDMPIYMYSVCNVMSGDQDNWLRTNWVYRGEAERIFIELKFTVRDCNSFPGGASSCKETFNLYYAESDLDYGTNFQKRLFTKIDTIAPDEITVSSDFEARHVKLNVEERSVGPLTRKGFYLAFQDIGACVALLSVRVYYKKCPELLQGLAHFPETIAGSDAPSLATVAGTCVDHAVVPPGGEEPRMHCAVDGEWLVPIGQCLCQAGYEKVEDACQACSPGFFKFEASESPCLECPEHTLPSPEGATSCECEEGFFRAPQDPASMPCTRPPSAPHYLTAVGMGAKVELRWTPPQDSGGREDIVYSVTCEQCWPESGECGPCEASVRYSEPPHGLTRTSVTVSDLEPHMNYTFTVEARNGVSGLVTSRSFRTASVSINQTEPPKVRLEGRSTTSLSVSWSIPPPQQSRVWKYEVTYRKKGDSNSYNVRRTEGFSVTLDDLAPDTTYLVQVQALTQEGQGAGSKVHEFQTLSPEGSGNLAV
T1 sequence (P29317 24-537): as above

The Ki is the dissociation constant of the complex between target and ligand, obtained from inhibition or displacement. Take [Sar][Sar]ACPWG[Aib]F[1Nal]CPVNRPGC (linker 4-11-18 via TBMB) [Bicycle Compound Number 123 (TBMB scaffold)]: the Ki in assay [1] is 63 nM; in assay [2] it was 46 nM. As to [βAla][Sar][Sar][Sar][Sar][Sar][Sar][Sar][Sar][Sar][Sar]H[dD]VPCP[1Nal]G[Aib]F[1Nal]CP[Tle]NRPGC (linker 16-23-30 via TBMB) [Bicycle Compound 252], the Ki in assay [3] is 0.37 nM. That is a sub-nanomolar value. The same measure, in the same setting: next, [βAla][Sar][Sar][Sar][Sar][Sar][Sar][Sar][Sar][Sar][Sar]H[dD]VPC[dA][1Nal]G[Aib]F[1Nal]CP[Tle]N[hArg]P[dD]C (linker 16-23-30 via TBMB) [Bicycle Compound 248]: 28.4 nM; [βAla][Sar][Sar][Sar][Sar][Sar][Sar][Sar][Sar][Sar][Sar]H[dD]VPC[Aib]WGP[hArg]WCP[Tle]N[hArg]P[dD]C (linker 16-23-30 via TBMB) [Bicycle Compound 247]: 29.7 nM; [βAla][Sar][Sar][Sar][Sar][Sar][Sar][Sar][Sar][Sar][Sar]H[dD]VPC[Aib][1Nal]G[Aib]F[1Nal]CP[Tle]NR[Aib]GC (linker 16-23-30 via TBMB) [Bicycle Compound 239]: 4.91 nM.

B1: Bicycle Compound Number 131 (TBMB scaffold) (peptide)
peptide: [Sar][Sar]ACP[1Nal]GPFWCP[Tle]NR[Aib]GC
modifications: linker 4-11-18 via TBMB
notes: also called Sar2-ACP(1Nal)GPFWCP(tBuGly)NR(Aib)GC
Consider B1, for which the Ki in assay [1] was 11 nM; in assay [2], 6.8 nM. In the case of [βAla][Sar][Sar][Sar][Sar][Sar][Sar][Sar][Sar][Sar][Sar]H[dD]VPC[Aib][1Nal]GP[hArg][1Nal]CP[Tle]NR[Aib]GC (linker 16-23-30 via TBMB) [Bicycle Compound 243], in assay [3], the Ki was 2.83 nM. Turning to [βAla][Sar][Sar][Sar][Sar][Sar][Sar][Sar][Sar][Sar][Sar]H[dD]VPC[Aib][1Nal]G[Aib]F[1Nal]CP[Tle]N[hArg]PGC (linker 16-23-30 via TBMB) [Bicycle Compound 235], the Ki in assay [3] is 2.58 nM. For the molecule ADVHCPWGPFWCPVNRPGCA (linker 5-12-19 via TBMB (inferred), also called Compound 57) [Bicycle Compound Number 57 (TBMB scaffold)], the Ki in assay [1] stood at 0.48 nM; in assay [2], 1.2 nM. As to [βAla][Sar][Sar][Sar][Sar][Sar][Sar][Sar][Sar][Sar][Sar]H[dD]VPCP[1Nal]G[Aib][hArg][1Nal]CP[Tle]N[hArg]P[dD]C (linker 16-23-30 via TBMB) [Bicycle Compound 251], the Ki in assay [3] turned out to be 1.93 nM.

As for [βAla][Sar][Sar][Sar][Sar][Sar][Sar][Sar][Sar][Sar][Sar]H[dD]VPC[Aib][1Nal]GP[hArg][1Nal]CP[Tle]N[hArg]P[dD]C (linker 16-23-30 via TBMB) [Bicycle Compound 244], the Ki in assay [3] amounted to 2.8 nM. As to AEGLPCPWGPFWCPVNRPGCA (linker 6-13-20 via TBMB (inferred), also called Compound 55) [Bicycle Compound Number 55 (TBMB scaffold)], the Ki stood at 11.3 nM in assay [1] and 6.15 nM in assay [2]. Regarding [βAla][Sar][Sar][Sar][Sar][Sar][Sar][Sar][Sar][Sar][Sar]H[dD]VPC[Aib][1Nal]G[Aib]F[1Nal]CP[Tle]NRPGC (linker 16-23-30 via TBMB) [Bicycle Compound 234], in assay [3], the Ki turned out to be 3.94 nM. [Sar][Sar]ACP[1Nal]G[Aib]FWCPVNRP[dA]C (linker 4-11-18 via TBMB) [Bicycle Compound Number 128 (TBMB scaffold)]: the figures for the Ki in assay [1] and in assay [2] were 15 nM and 16 nM, respectively. Turning to [βAla][Sar][Sar][Sar][Sar][Sar][Sar][Sar][Sar][Sar][Sar]H[dD]VPC[Aib][1Nal]G[Aib]FWCP[Tle]N[hArg]P[dD]C (linker 16-23-30 via TBMB) [Bicycle Compound 242], in assay [3], the Ki was determined as 7.77 nM.

B2: Bicycle Compound Number 121 (TBMB scaffold) (peptide)
peptide: [Sar][Sar]ACP[1Nal]GPFWCP[Tle]NRPGC
modifications: linker 4-11-18 via TBMB
notes: also called Sar2-ACP(1Nal)GPFWCP(tBuGly)NRPGC
Consider B2, for which the Ki in assay [1] was found to be 3.65 nM; in assay [2] it was 2 nM.

B3: Bicycle Compound Number 132 (TBMB scaffold) (peptide)
peptide: [Sar][Sar]ACP[1Nal]GPFWCP[Tle]NRP[dA]C
modifications: linker 4-11-18 via TBMB
notes: also called Sar2-ACP(1Nal)GPFWCP(tBuGly)NRP(D-Ala)C
On to B3, for which the figures for the Ki in assay [1] and in assay [2] were 7.7 nM and 8.7 nM, respectively.

B4: Bicycle Compound Number 129 (TBMB scaffold) (peptide)
peptide: [Sar][Sar]ACP[1Nal]GPFWCP[Tle][dA]RPGC
modifications: linker 4-11-18 via TBMB
notes: also called Sar2-ACP(1Nal)GPFWCP(tBuGly)(D-Ala)RPGC
Consider B4, for which the figures for the inhibition constant Ki in assay [1] and in assay [2] were 23 nM and 15 nM, respectively.

With Ac-[Sar][Sar]A[dD]VTCP[1Nal]G[Aib]F[1Nal]CP[Tle]N[hArg]P[dD]C (linker 7-14-21 via TBMB) [Bicycle Compound 184], in assay [3], the Ki stood at 1.19 nM. The same measure, in the same setting: the result for Ac-[Sar][Sar]A[dH]DVPCP[1Nal]G[Aib]F[1Nal]CP[Tle]N[hArg]PGC (linker 8-15-22 via TBMB) [Bicycle Compound 231] reads 1.93 nM; that for Ac-[Sar][Sar]A[dD]VTCP[1Nal]G[Aib]F[1Nal]CP[Tle]N[hArg]PGC (linker 7-14-21 via TBMB) [Bicycle Compound 182], 1.16 nM; that for Ac-[Sar][Sar]A[dH]DVPCP[1Nal]G[Aib]F[1Nal]CP[Tle]NR[Aib]GC (linker 8-15-22 via TBMB) [Bicycle Compound 232], 0.9 nM. In the case of [Sar][Sar]ACP[1Nal]GPF[1Nal]CPVNRPGC (linker 4-11-18 via TBMB, also called Compound 120) [Bicycle Compound Number 120 (TBMB scaffold)], the Ki was found to be 1.4 nM in assay [1] and 0.98 nM in assay [2].

As to Ac-[Sar][Sar]H[dD]VPCP[1Nal]G[Aib]F[1Nal]CP[Tle]N[hArg]PGC (linker 7-14-21 via TBMB) [Bicycle Compound 253], the Ki in assay [3] was found to be 0.85 nM. That is a sub-nanomolar value.

In the case of [βAla][Sar][Sar][Sar][Sar][Sar][Sar][Sar][Sar][Sar][Sar]H[dD]VPC[Aib][1Nal]G[Aib]F[1Nal]CP[Tle]N[hArg][Aib][dD]C (linker 16-23-30 via TBMB) [Bicycle Compound 238], the Ki in assay [3] came to 2.83 nM.

B5: Bicycle Compound Number 126 (TBMB scaffold) (peptide)
peptide: [Sar][Sar]ACP[1Nal]G[Aib]FWCP[Tle]NRPGC
modifications: linker 4-11-18 via TBMB
notes: also called Sar2-ACP(1Nal)G(Aib)FWCP(tBuGly)NRPGC
Regarding B5, the results for the Ki in assay [1] and in assay [2] were 15 nM and 19 nM, respectively. In the case of [βAla][Sar][Sar][Sar][Sar][Sar][Sar][Sar][Sar][Sar][Sar]H[dD]VPCP[1Nal]G[Aib][hArg][1Nal]CP[Tle]NR[Aib][dD]C (linker 16-23-30 via TBMB) [Bicycle Compound 250], in assay [3], the Ki is 1.48 nM. Same read-out and setting: the result for [βAla][Sar][Sar][Sar][Sar][Sar][Sar][Sar][Sar][Sar][Sar]H[dD]VPCP[1Nal]G[Aib][hArg][1Nal]CP[Tle]NR[Aib]GC (linker 16-23-30 via TBMB) [Bicycle Compound 249] reads 1.38 nM; that for [βAla][Sar][Sar][Sar][Sar][Sar][Sar][Sar][Sar][Sar][Sar]H[dD]VPC[Aib]WGP[hArg]WCP[Tle]N[hArg]P[dD]C (linker 16-23-30 via TBMB) [Bicycle Compound 246], 31.4 nM.

Consider [Sar][Sar]ACP[1Nal]GPFWCPVN[hArg]PGC (linker 4-11-18 via TBMB, also called Compound 122) [Bicycle Compound Number 122 (TBMB scaffold)], for which the results for the Ki in assay [1] and in assay [2] were 9.55 nM and 8 nM, respectively. For the molecule [Sar][Sar]ACP[1Nal]GPFWCPVN[hArg]P[dA]C (linker 4-11-18 via TBMB) [Bicycle Compound Number 134 (TBMB scaffold)], the Ki in assay [1] was 1.2 nM; in assay [2], 6.15 nM.

B6: Bicycle Compound Number 133 (TBMB scaffold) (peptide)
peptide: [Sar][Sar]ACP[1Nal]GPFWCPV[dA][hArg]PGC
modifications: linker 4-11-18 via TBMB
notes: also called Sar2-ACP(1Nal)GPFWCPV(D-Ala)(HArg)PGC
Take B6: the Ki in assay [1] turned out to be 14 nM; in assay [2] it was 3.7 nM. Take Ac-[Sar][Sar]A[dD]VTCP[1Nal]G[Aib]F[1Nal]CP[Tle]NR[Aib]GC (linker 7-14-21 via TBMB) [Bicycle Compound 183]: the inhibition constant (Ki) in assay [3] was determined as 1.02 nM. [βAla][Sar][Sar][Sar][Sar][Sar][Sar][Sar][Sar][Sar][Sar]H[dD]VPCP[1Nal]G[Aib]F[1Nal]CP[Tle]N[hArg]PGC (linker 16-23-30 via TBMB) [Bicycle Compound 257]: the Ki in assay [3] was found to be 1.07 nM.
